Where two headings read alike, the source gives them in different places.
B1: clone 8 (antibody, V domains shown)
VH: EVQLVESGGGLVKPGGSLRLSCAASGFTFSSYAMNWVRQAPGKGLEWVSTITTGGSYTYYADSVEGRFTISRDNAKNSLYLQMNSLRAEDTAVYYCARQDGNFLMDYWGQGTLVTVSS
VL: DVVMTQTPLSLPVTLGQPASISCKSSPSLLDVDGKTYLNWLQQRPGQSPKRLIYLVSKLDSGVPDRFTGSGSGTDFTLKISRVEAEDVGVYYCWQGTHFPFTFGQGTKVEIKR
B2: clone 3 (antibody, V domains shown)
VH: EVQLVESGGGLVKPGGSLRLSCAASGFTFSSYAMNWVRQAPGKGLEWVGTITTGGSHTYYADSVDGRFTISRDNAKNSLYLQMNSLRAEDTAVYYCARQDGNFLMDYWGQGTLVTVSS
VL: DVVMTQTPLSLPVTLGQPASISCKSSPSLLDVDGKTYLNWLQQRPGQSPKRLIYLVSKLDSGVPDRFTGSGSGTDFTLKISRVEAEDVGVYYCWQGTHFPFTFGQGTKVEIKR
B3: clone 13 (antibody, V domains shown)
VH: EVQLVESGGGLVKPGGSLRLSCAASGFTFSSYAMNWVRQAPGKGLEWVGTITTGGSHTYYADSVEGRFTISRDNAKNSLYLQMNSLRAEDTAVYYCARQDGNFLMDYWGQGTLVTVSS
VL: DVVMTQTPLSLPVTLGQPASISCKSSPSLLDIDGKTYLNWLQQRPGQSPKRLIYLVSKLDSGVPDRFTGSGSGTDFTLKISRVEAEDVGVYYCWQGTHFPFTFGQGTKVEIKR

Assays:
Assay in all cases: cell-based or functional assay
[1] = biological target: T1, recombinant human TFPI (tissue factor pathway inhibitor) (human, UniProt P10646 29-304)
[2] = biological target: T1, recombinant human TFPI (tissue factor …); remark: listed apart in the source
[3] = biological target: T1, recombinant human TFPI (tissue factor …); remark: listed apart in the source
[4] = biological target: T1, recombinant human TFPI (tissue factor …); remark: listed apart in the source
[5] = biological target: T1, recombinant human TFPI (tissue factor …); remark: listed apart in the source
[6] = biological target: T1, recombinant human TFPI (tissue factor …); remark: listed apart in the source
[7] = biological target: T1, recombinant human TFPI (tissue factor …); remark: listed apart in the source

| Binder | FXa assay % of FXa alone, 2.5 nM Ab, 10 nM TFPI [1] [%] | FXa assay % of FXa alone, 5 nM Ab, 10 nM TFPI [1] [%] | FXa assay OD, 2.5 nM Ab, 10 nM TFPI [1] | FXa assay OD, 5 nM Ab, 10 nM TFPI [1] | FXa assay OD, 10 nM Ab, 10 nM TFPI [1] | FXa assay OD, 20 nM Ab, 10 nM TFPI [1] | % of Normalized, TF/FVIIa/FX complex assay (FX 5 nM), Ab 1.56 nM [2] [%] | % of Normalized, TF/FVIIa/FX complex assay (FX 5 nM), Ab 3.13 nM [2] [%] | % of Normalized, TF/FVIIa/FX complex assay (FX 5 nM), Ab 6.25 nM [2] [%] | % of Normalized, TF/FVIIa/FX complex assay (FX 5 nM), Ab 12.5 nM [2] [%] | % of Normalized, TF/FVIIa/FX complex assay (FX 5 nM), Ab 25 nM [2] [%] | % of Normalized, TF/FVIIa/FX complex assay (FX 5 nM), Ab 50 nM [2] [%] | % of Normalized, TF/FVIIa/FX complex assay (FX 5 nM), Ab 100 nM [2] [%] | A405, TF/FVIIa/FX complex assay (FX 5 nM), Ab 1.56 nM [3] | A405, TF/FVIIa/FX complex assay (FX 5 nM), Ab 3.13 nM [3] | A405, TF/FVIIa/FX complex assay (FX 5 nM), Ab 6.25 nM [3] | A405, TF/FVIIa/FX complex assay (FX 5 nM), Ab 12.5 nM [3] | A405, TF/FVIIa/FX complex assay (FX 5 nM), Ab 25 nM [3] | effect of inhibiting TFPI, FXa activity assay, Ab 10 nM [5] [%] | effect of inhibiting TFPI, FXa activity assay, Ab 20 nM [5] [%] | other results |
| --- | --- | --- | --- | --- | --- | --- | --- | --- | --- | --- | --- | --- | --- | --- | --- | --- | --- | --- | --- | --- | --- |
| B1 | 7.1 | 33.8 | 0.054 | 0.258 | 0.527 | 0.61 | 5.1 | 6.1 | 6.4 | 10.8 | 48.3 | 83.2 | 103 | 0.041 | 0.05 | 0.052 | 0.088 | 0.391 | ~69 | ~80 | A405, TF/FVIIa/FX complex assay (FX 5 nM), Ab 50 nM [3]: 0.673; A405, TF/FVIIa/FX complex assay (FX 5 nM), Ab 100 nM [3]: 0.834; FXa assay % of FXa alone, 2.5 nM Ab, 10 nM TFPI [4]: 7.4%; FXa assay % of FXa alone, 5 nM Ab, 10 nM TFPI [4]: 31%; FXa assay % of FXa alone, 10 nM Ab, 10 nM TFPI [4]: 70.5%; FXa assay % of FXa alone, 20 nM Ab, 10 nM TFPI [4]: 77.5%; FXa assay OD, 2.5 nM Ab, 10 nM TFPI [4]: 0.0615; FXa assay OD, 5 nM Ab, 10 nM TFPI [4]: 0.256; FXa assay OD, 10 nM Ab, 10 nM TFPI [4]: 0.583; FXa assay OD, 20 nM Ab, 10 nM TFPI [4]: 0.64 |
| B2 | 10.8 | 45.5 | 0.0825 | 0.346 | 0.536 | 0.618 | 5.6 | 5.7 | 7.2 | 17.4 | 65.1 | 91.8 | 104 | 0.045 | 0.046 | 0.059 | 0.141 | 0.527 | ~70 | ~81 | A405, TF/FVIIa/FX complex assay (FX 5 nM), Ab 50 nM [3]: 0.743; A405, TF/FVIIa/FX complex assay (FX 5 nM), Ab 100 nM [3]: 0.842 |
| B3 |  |  |  |  |  |  |  |  |  |  |  |  |  |  |  |  |  |  | ~76 | ~85 | % of Normalized, TF/FVIIa/FX complex assay, Ab 1.56 nM [6]: 5.4%; % of Normalized, TF/FVIIa/FX complex assay, Ab 3.13 nM [6]: 6.4%; % of Normalized, TF/FVIIa/FX complex assay, Ab 6.25 nM [6]: 8.8%; % of Normalized, TF/FVIIa/FX complex assay, Ab 12.5 nM [6]: 11.9%; % of Normalized, TF/FVIIa/FX complex assay, Ab 25 nM [6]: 62.2%; % of Normalized, TF/FVIIa/FX complex assay, Ab 50 nM [6]: 96.5%; % of Normalized, TF/FVIIa/FX complex assay, Ab 100 nM [6]: 101%; A405, TF/FVIIa/FX complex assay, Ab 1.56 nM [7]: 0.046; A405, TF/FVIIa/FX complex assay, Ab 3.13 nM [7]: 0.054; A405, TF/FVIIa/FX complex assay, Ab 6.25 nM [7]: 0.075; A405, TF/FVIIa/FX complex assay, Ab 12.5 nM [7]: 0.101; A405, TF/FVIIa/FX complex assay, Ab 25 nM [7]: 0.528; A405, TF/FVIIa/FX complex assay, Ab 50 nM [7]: 0.818; A405, TF/FVIIa/FX complex assay, Ab 100 nM [7]: 0.859; FXa assay % of FXa alone, 2.5 nM Ab, 10 nM TFPI [4]: 7.8%; FXa assay % of FXa alone, 5 nM Ab, 10 nM TFPI [4]: 44.8%; FXa assay OD, 2.5 nM Ab, 10 nM TFPI [4]: 0.0645; FXa assay OD, 5 nM Ab, 10 nM TFPI [4]: 0.37; FXa assay OD, 10 nM Ab, 10 nM TFPI [4]: 0.624; FXa assay OD, 20 nM Ab, 10 nM TFPI [4]: 0.706 |

Reference: patent US20180030151A1 (MOGAM INSTITUTE FOR BIOMEDICAL RESEARCH, published 2018)
